In one experiment the target is T1, human IL-1β (human, UniProt P01584 117-269).
T1 construct: antigen of the ABT2 dAbs; also called hIL-1β; IL-1 beta
The experiment in a line: IC50 column of Table 63; receptor binding assay presumed.

Experiment [1] has as its target T2, human IL-1α (human, UniProt P01583 113-271).
T2 sequence (looked up): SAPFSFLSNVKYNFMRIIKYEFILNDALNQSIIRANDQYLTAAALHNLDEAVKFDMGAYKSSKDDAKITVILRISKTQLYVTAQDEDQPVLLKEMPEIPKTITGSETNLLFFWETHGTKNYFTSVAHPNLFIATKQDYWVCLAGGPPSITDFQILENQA
The experiment in a line: cell-based or functional assay.

In experiment [2] the target is T2, human IL-1α. The experiment in a line: Table 62 IC50; RBA presumed.

Some results are limits rather than exact numbers.

From US20090291081A1 (AbbVie / Abbott, published 2009) come the findings set out here.

Usually IC50 stands for the concentration at which inhibition is half-maximal.

B1: ABT2-63 (other)
VL: DIQMTQSPSSLSASVGDRVTITCRASQSIRVFLSWYQQKPGKAPKLLIYNASYLQSGVPSRFSGSGSGTDFTLTISSLQPEDFATYYCQQRALYPTTFGQGTKVEIKR
notes: VK dAb
In the experiment with human IL-1β, B1 returned an IC50 of 1000 nM.

B2: ABT1-165 (other)
VL: DIQMTQSPSSLSASVGDRVTITCRASSSIRAGLAWYQQKPGKAPKLLIGPESGLQSGVPSRFSGSGSGTDFTLTISSLQPEDFATYYCGQGIDGPATFGQGTKVEIKR
notes: VK dAb
B2: the ND50 in the experiment with human IL-1α [1] was found to be 1000 nM. Also, in the experiment with human IL-1α [2], the IC50 is over 1000 nM.

B3: ABT1-162 (other)
VL: DIQMTQSPSSLSASVGGRVTITCRASHYIRNRLHWYQQKPGKAPKLLIARGSALQSGVPSRFSGSGSGTDFTLTISSLQPEDFATYYCVQDGYLPPTFGQGTKVEIKR
notes: VK dAb
Take B3: the ND50 with human IL-1α [1] stood at 6.2 nM. In addition, it took 1000 nM to reach half-maximal inhibition with human IL-1α [2] (IC50).

B4: ABT1-161 (other)
VL: DIQMTQSPSSLSASVGDRVTITCRASHAITGSLRWYQQKPGKAPKLLISGGSVLQSGVPSRFSGSGSGTDFTLTISSLQPEDFATYYCAQWLGGPMTFGQGTKVEIKR
notes: VK dAb
Regarding B4, in the experiment with human IL-1α [1], the ND50 came out at 8 nM. The molecule also showed an IC50 in the experiment with human IL-1α [2] of over 1000 nM.

B5: ABT2-65-1 (other)
VH: EVQLLESGGGLVQPGGSLRLSCAASGFTFEDYQMGWVRQAPGKGLEWVSSISAMGNRTYYADSVKGRFTISRDDSKNTLYLQMKSLRAEDTAVYYCAQNLVRTQSKMWMFDYWGQGTLVTVSS
notes: VH dAb
On to B5, for which the IC50 in the experiment with human IL-1β was determined as 100 nM.

B6: ABT2-65-25 (other)
VH: EVQLLESGGGLVQPGGSLRLSCAASGFTFEDYQMGWVRQAPGKGLEWVSSISAMGNRTYYADSVKGRFTISRDDSKNTLYLQMNSLRAEDTAVYYCAQNLVRYRSYYWMFDYWGQGTLVTVLS
notes: VH dAb
On to B6, for which the IC50 with human IL-1β was 4 nM.

B7: ABT2-65-38 (other)
VH: EVQLLESGGGLVQPGGSLRLSCAASGFTFEDYQMGWVRQAPGKGLEWVSSISAMGNRTYYADSVKGRFTIYRDDSKNTLYLQMNSLRAEDTAVYYCAQNLVRTQSKMWMFDYWGQGTLVTVSS
notes: VH dAb
As to B7, the IC50 with human IL-1β worked out at 30 nM.

B8: ABT2-65-37 (other)
VH: EVQLLESGGGLVQPGGSLRLSCAASGFTFADYQMGWVRQAPGKGLEWVSSISAMGNRTYYADSVKGRFTISRDDSKNTLYLQMNSLRAEDTAVYYCAQNLVRTQSKMWMFDYWGQGTLVTVSS
notes: VH dAb
In the experiment with human IL-1β, B8 came in with an IC50 of 100 nM.

B9: ABT2-65-24 (other)
VH: EVQLLESGGGLVQPGGSLRLSCAASGFTFAAYQMGWVRQAPGKGLEWVSSISAMGNRTYYADSVKGRFTISRDDSKNTLYLQMNSLRAEDTAVYYCAQNLVRTQSKMWMFDYWGQGTLVTVSS
notes: VH dAb
For B9, the IC50 with human IL-1β is 50 nM.

B10: ABT2-65-33 (other)
VH: EVQLLESGGGLVQPGGSLRLSCAASGFTFEDYQMGWVRQAPGKGLEWVSSISAMGNRTYYADSVKGRFTISRDDSKNTLYLQMNSLRAEDTAVYYCAQNLVRYMKSQWMFDYWGQGTLVTVSS
notes: VH dAb
In the experiment with human IL-1β, B10 registered an IC50 of 20 nM. Against the preceding molecule, the IC50 is about 2.5-fold lower.

B11: ABT2-65-23 (other)
VH: EVQLLESGGGLVQPGESLRLSCAASGFTFKVYPMGWVRQAPGKGLEWVSSISAMGNRTYYADSVKGRFTISRDDSKNTLYLQMNSLRAEDTAVYYCAKNLVRTQSKMWMFDYWGQGTLVTVSS
notes: VH dAb
In turn, B11 gave an IC50 with human IL-1β of 800 nM.

B12: ABT2-65-18 (other)
VH: EVQLLESGGGLVQPGGSLRLSCAASGFTFGDYQMGWVRQAPGKGLEWVSSISAMGNRTYYADSVKGRFTISRDDSKNTLYLQMNSLRAEDTAVYYCAENLVQWRIGAWMFDYWGQGTLVTVSS
notes: VH dAb
B12 showed an IC50 with human IL-1β of 20 nM.

B13: ABT2-65-30 (other)
VH: EVRLLESGGGLVQPGGSLRLSCAASGFTFEDYQMGWVRQAPGKGLEWVSSISAMGNRTYYADSVKGRFTISRDDSKNTLYLQMNSLRAEDTAVYYCAQNLVRLNRRDWMFDYWGQGTLVTVSS
notes: VH dAb
With B13, the IC50 with human IL-1β came out at 20 nM.

B14: ABT2-65-39 (other)
VH: EVQLLESGGGLVQPGGSLRLSCAASGFTFEDYQMGWVRQAPGKGLEWVSSISAMGNRTYYADSVKGRFTISRDDSKNTLYLQMNSLRAEDTAVYYCAGNLVRTQSKMWMFDYWGQGTLVTVSS
notes: VH dAb
For the molecule B14, the IC50 with human IL-1β was determined as 300 nM.

B15: ABT2-65-16 (other)
VH: EVQLLESGGGLVQPGGSLRLSCAASGFTFEDYQMGWVRQAPGKGLEWVSSISAMGNRTYYADSVKGRFTISRDDSKNTLYLQMNSLRAEDTAVYYCAENLVKWRSAEWMFDYWGQGTLVTVSS
notes: VH dAb
Consider B15, for which, in the experiment with human IL-1β, the IC50 turned out to be 200 nM.

B16: ABT2-65-28 (other)
VH: EVQLLESGGGLVQPGGSLRLSCAASGFTFEDYQMGWVRQAPGKGLEWVSSISAMGNRTYYADSVKGRFTISRDDSKNTLYLQMNSLRAEDTAVYYCAQNLVQFRRSQWMFDYWGQGTLVTVSS
notes: VH dAb
Molecule B16 came in with an IC50 with human IL-1β of 5 nM. This IC50 is about 40-fold lower than that of the molecule before.

B17: ABT2-65-22 (other)
VH: EVQLLESGGGLVQPGGSLRLSCAASGFTFLGYPMGWVRQAPGKGLEWVSSISAMGNRTYYADSVKGRFTISPDDSKNTLYLQMNSLRAEDTAVYYCAKNLVRTQSKMWMFDYWGQGTLVTVSS
notes: VH dAb
For B17, the IC50 with human IL-1β turned out to be 100 nM. This IC50 lies about 20-fold higher than the previous one.

B18: ABT2-65-27 (other)
VH: EVQLLESGGGLVQPGGSLRLSCAASGFTFEDYQMGWVRQAPGKGLEWVSSISAMGNRTYYADSVKGRFTISRDDSKNTLYLQMNSLRAEDTAVYYCAENLVRLWKGRWMFDYWGQGTLVTVSS
notes: VH dAb
With B18, the IC50 in the experiment with human IL-1β was found to be 3.5 nM.

B19: ABT2-65-12 (other)
VH: EVQLLESGGGLVQPGGSLRLSCAASGFTFREYWMGWVRQAPGKGLEWVSSISAMGNRTYYADSVKGRFTISRDDSKNTLYLQMNSLRAEDTAVYYCANNLVRTQSKMWMFDYWGQGTLVTVSS
notes: VH dAb
B19 registered an IC50 with human IL-1β of 20 nM.

B20: ABT2-65-2 (other)
VH: EVQLLESGGGLVQPGGSLRLSCAASGFTFSTYNMGWVRQAPGKGLEWVSSISAMGNRTYYADSVKGRFTISRDDSKNTLYLQMNSLRAEDTAVYYCANNLVRTQSKMWMFDYWGQGTLVTVSS
notes: VH dAb
In the experiment with human IL-1β, B20 registered an IC50 of 20 nM.

B21: ABT2-65-9 (other)
VH: EVQLLESGGGLVHPGGSLRLSCAASGFTFRWYPMGWVRQAPGKGLEWVSSISAMGNRTYYADSVKGRFTISRDDSKNTLYLQMNSLRAEDTAVYYCAENLVRTQSKMWMFDYWGQGTLVTVSS
notes: VH dAb
In the experiment with human IL-1β, B21 yielded a 50% inhibitory concentration (IC50) of 100 nM. Compared with the last molecule, the IC50 is about 5-fold higher.

B22: ABT2-65-15 (other)
VH: EVQLLESGGGLVQPGGSLRLSCAASGFTFGIYQMGWVRQAPGKGLEWVSSISAMGNRTYYADSVKGRFTISRDDSKNTLYLQMNSLRAEDTAVYYCAQNLVRTQSKMWMFDYWGQGTLVTVSS
notes: VH dAb
In the experiment with human IL-1β, B22 returned an IC50 of 100 nM.

B23: ABT2-65-26 (other)
VH: EVQLLESGGGLVQPGGSLRLSCAASGFTFEDYQMGWVRQAPGKGLEWVSSISAMGNRTYYADSVKGRFTISRDDSKNTLYLQMNSLRAEDTAVYYCAQNLVLVRSGYWMFDYWGQGTLVTVSS
notes: VH dAb
In the case of B23, in the experiment with human IL-1β, the IC50 worked out at 20 nM.

B24: ABT2-65-32 (other)
VH: EVQLLESGGGLVQPGGSLRLSCAASGFTFEDYQMGWVRQAPGKGLEWVSSISAMGNRTYYADSVKGRFTISRDDSKNTLYLQMNSLRAEDTAVYYCAQNLVAVSRGRWMFDYWGQGTLVTVSS
notes: VH dAb
In the experiment with human IL-1β, B24 came in with an IC50 of 4 nM.

B25: ABT2-65-14 (other)
VH: EVQLLESGGGLVQPGGSLRLSCAAPGFTFPYYPMGWVRQAPGKGLEWVSSISAMGNRTYYADSVKGRFTISRDDSKNTLYLQMNSLRAEDTAVYYCAKNLVRTQSKMWMFDYWGQGTLVTVSS
notes: VH dAb
Turning to B25, the IC50 with human IL-1β turned out to be 1000 nM.

B26: ABT2-65-29 (other)
VH: EVQLLESGGGLVQPGGSLRLSCAASGFTFEDYQMGWVRQAPGKGLEWVSSISAMGNRTYYADSVKGRFTISRDDSKNTLYLQMNSLRAEDTAVYYCAQNLVLVRVGWWMFDYWGQGTLVTVSS
notes: VH dAb
The molecule B26 yielded an IC50 with human IL-1β of 20 nM. This IC50 is about 50-fold lower than that of the molecule before.

B27: ABT2-65-31 (other)
VH: EVQLLESGGGLVQPGGSLRLSCAASGFTFEDYQMGWVRQAPGKGLEWVSSISAMGNRTYYADSVKGRFTISRDDSKNTLYLQMNSLRAEDTAVYYCAQNLVKIMRLKWMFDYWGQGTLVTVSS
notes: VH dAb
In the experiment with human IL-1β, B27 registered an IC50 of 3 nM.

B28: ABT2-65-49 (other)
VH: GVQLLESGGGLVQPGGSLRLSCAASGFTFEDYQMGWVRQAPGKGLEWVSSISAMGNRTYYADSVKGRFTISRDDSKNTLYLQMNSLRAEDTAVYYCAQNLVRTQSKMWMFDYWGQGTLVTVSS
notes: VH dAb
In the case of B28, in the experiment with human IL-1β, the IC50 was found to be 20 nM.

B29: ABT2-65-46 (other)
VH: EVQLLESGGGLVQPGGSLRLSCAASGFTFEDYQMGWVRQAPGKGLEWVSSISAMGNRTYYADSVKGRFTISRDDSKNTLYLQMNSLRAEDTAVYYCAKWLTRTQSKLGYFDYWGQGTLVTVSS
notes: VH dAb
In turn, B29 yielded an IC50 with human IL-1β of 30 nM.

B30: ABT2-65-13 (other)
VH: EVQLLESGGGLVQPGGSLRLSCAASGFTFREYQMGWVRQAPGKGLEWVSSISAMGNRTYYADSVKGRFTISRDDSKNTLYLQMNSLRAEDTAVYYCANNLVRTQSKMWMFDYWGQGTLVTVSS
notes: VH dAb
Molecule B30 returned an IC50 with human IL-1β of 20 nM.

B31: ABT2-65-11 (other)
VH: EVQLLESGGGLVQPGGSLRLSCAASGFTFRAYPMGWVRQAPGKGLEWVSSISAMGNRTYYADSVKGRFTISRDDSKNTLYLQMNSLRAEDTAVYYCANNLVRTQSKMWMFDYWGQGTLVTVSS
notes: VH dAb
Molecule B31 returned an IC50 with human IL-1β of 50 nM.
